For one substance, activity results are on record in patent publication US20040186048.

The target in the series is Ferritin-H (ferritin heavy chain) (Homo sapiens) (UniProt P02794). As to the kind of experiment: cell_activity. Particulars: CV-1 cells, EKLF-stimulated beta-CAT reporter.
Ferritin-H (ferritin heavy chain) (Homo sapiens), sequence (P02794 2-183): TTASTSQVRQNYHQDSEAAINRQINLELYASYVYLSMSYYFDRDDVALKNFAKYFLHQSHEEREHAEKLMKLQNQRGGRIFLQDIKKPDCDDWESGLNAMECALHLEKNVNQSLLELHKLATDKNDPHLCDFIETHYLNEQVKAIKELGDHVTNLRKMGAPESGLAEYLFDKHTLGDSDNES

The substance beta-globin 5' region -610/+20 (630 bp) yielded an activity of 62 % repression.
